Where no end group is shown, it is not given here.
Legend:
[1] = molecular target: receptor on murine NIH-3T3 fibroblast cells (ATCC No. CCL92) to which 125I-GRP binds (murine) (UniProt P21729); test: competition with […] 125I-GRP on NIH-3T3 cells; inhibitor at 1 nM
[2] = molecular target: receptor on murine NIH-3T3 fibroblast cells (ATCC No. CCL92) to which 125I-GRP binds (murine) (UniProt P21729); test: competition with […] 125I-GRP on NIH-3T3 cells; inhibitor at 10 nM
[3] = molecular target: receptor on murine NIH-3T3 fibroblast cells (ATCC No. CCL92) to which 125I-GRP binds (murine) (UniProt P21729); test: competition with […] 125I-GRP on NIH-3T3 cells; inhibitor at 100 nM
[4] = molecular target: receptor on murine NIH-3T3 fibroblast cells (ATCC No. CCL92) to which 125I-GRP binds (murine, UniProt P21729); test: competition with 0.45 pM 125I-GRP on NIH-3T3 cells, filter assay
Procedure: Each tube was charged with 4 ×10^4 cells. […] Three control tubes with no cells or competitor were prepared for measurement of total counts added.
The samples were incubated for 30 min at RT. The contents of each tube were transferred into the wells of a 96-well filter bottom plate (Millipore Multiscreen, Arlington Heights, Mass.) and filtered under moderate vacuum (water aspirator). Each filter was washed three times by filling each well with ice cold PBS, Ph 7.4, 0.1% BSA. The plate was allowed to dry. Dried filters were placed into gamma-counter tubes (12×75 mm glass). The radioactivity on each filter and in the control tubes was counted using a LKB gamma counter. The bound/total added for each assay tube was calculated.

Chain of receptor on murine NIH-3T3 fibroblast cells (ATCC No. CCL92) to which 125I-GRP binds (murine) (P21729 whole entry): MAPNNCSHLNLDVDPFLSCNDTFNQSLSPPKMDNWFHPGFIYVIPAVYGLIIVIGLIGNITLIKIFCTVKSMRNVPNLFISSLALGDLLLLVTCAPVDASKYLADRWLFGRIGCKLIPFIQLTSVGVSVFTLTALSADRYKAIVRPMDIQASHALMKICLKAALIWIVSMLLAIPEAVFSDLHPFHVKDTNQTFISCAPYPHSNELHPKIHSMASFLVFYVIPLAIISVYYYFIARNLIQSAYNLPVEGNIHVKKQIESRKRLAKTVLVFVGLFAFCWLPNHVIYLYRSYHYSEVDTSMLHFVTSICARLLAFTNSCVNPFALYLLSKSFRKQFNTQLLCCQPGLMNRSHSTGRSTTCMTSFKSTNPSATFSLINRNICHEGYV

H-GNHWAVGHLM-NH2 [Neuromedin C (NMc, H-Gly-Asn-His-Trp-Ala-Val-Gly-His-Leu-Met-NH2)]
% BOUND (of I-125-GRP) [1]: 2.2%
% INHIBITION [1]: 63%
AVG CPM BOUND (of I-125-GRP) [1]: 1420 CPM
% BOUND (of I-125-GRP) [2]: 1.7%
% INHIBITION [2]: 71%
AVG CPM BOUND (of I-125-GRP) [2]: 1130 CPM
% BOUND (of I-125-GRP) [3]: 1.4%
% INHIBITION [3]: 76%
AVG CPM BOUND (of I-125-GRP) [3]: 940 CPM

B1: Benzoic acid bis-thiourea derived from Neuromedin-C, compound 3 (peptide)
peptide: GNHWAVGHLM-NH2
modifications: not fully specified (N-terminus); also: dimer: two chains on one 3,5-disubstituted benzoic acid via N-terminal thioureas
IC50 [4]: 10.6 nM

B2: Benzoic acid bis-thiosemicarbazide derived from N-acetyl-Neuromedin C-hydrazide, compound 6 (peptide)
peptide: Ac-GNHWAVGHLM
modifications: not fully specified (C-terminus); also: dimer: two chains on one 3,5-disubstituted benzoic acid via C-terminal thiosemicarbazides
IC50 [4]: 43.3 nM
